B1: furin-processed construct H (truncated ADAMTS4 active-site mutant without the spacer domain, C-terminal FLAG tag) (protein)
chain: FASLSRFVETLVVADDKMAAFHGAGLKRYLLTVMAAAAKAFKHPSIRNPVSLVVTRLVILGSGEEGPQVGPSAAQTLRSFCAWQRGLNTPEDSDPDHFDTAILFTRQDLCGVSTCDTLGMADVGTVCDPARSCAIVEDDGLQSAFTAAHQLGHVFNMLHDNSKPCISLNGPLSTSRHVMAPVMAHVDPEEPWSPCSARFITDFLDNGYGHCLLDKPEAPLHLPVTFPGKDYDADRQCQLTFGPDSRHCPQLPPPCAALWCSGHLNGHAMCQTKHSPWADGTPCGPAQACMGGRCLHMDQLQDFNIPQAGGWGPWGPWGDCSRTCGGGVQFSSRDCTRPVPRNGGKYCEGRRTRFRSCNTEDCPVDYKDDDDK
B2: furin-processed protein of construct B (truncated ADAMTS4, catalytic domain with His tag) (protein)
chain: FASLSRFVETLVVADDKMAAFHGAGLKRYLLTVMAAAAKAFKHPSIRNPVSLVVTRLVILGSGEEGPQVGPSAAQTLRSFCAWQRGLNTPEDSDPDHFDTAILFTRQDLCGVSTCDTLGMADVGTVCDPARSCAIVEDDGLQSAFTAAHELGHVFNMLHDNSKPCISLNGPLSTSRHVMAPVMAHVDPEEPWSPCSARFITDFLDNGYGHCLLDKPEHHHHHH
B3: ADAMTS4(p40), auto-digested isoform of human ADAMTS4 (protein)
chain: FASLSRFVETLVVADDKMAAFHGAGLKRYLLTVMAAAAKAFKHPSIRNPVSLVVTRLVILGSGEEGPQVGPSAAQTLRSFCAWQRGLNTPEDSDPDHFDTAILFTRQDLCGVSTCDTLGMADVGTVCDPARSCAIVEDDGLQSAFTAAHELGHVFNMLHDNSKPCISLNGPLSTSRHVMAPVMAHVDPEEPWSPCSARFITDFLDNGYGHCLLDKPEAPLHLPVTFPGKDYDADRQCQLTFGPDSRHCPQLPPPCAALWCSGHLNGHAMCQTKHSPWADGTPCGPAQACMGGRCLHMDQLQDFNIPQAGGWGPWGPWGDCSRTCGGGVQFSSRDCTRPVPRNGGKYCEGRRTRFRSCNTEDCPTGSALT
B4: ADAMTS4(p53), auto-digested isoform of human ADAMTS4 (protein)
chain: FASLSRFVETLVVADDKMAAFHGAGLKRYLLTVMAAAAKAFKHPSIRNPVSLVVTRLVILGSGEEGPQVGPSAAQTLRSFCAWQRGLNTPEDSDPDHFDTAILFTRQDLCGVSTCDTLGMADVGTVCDPARSCAIVEDDGLQSAFTAAHELGHVFNMLHDNSKPCISLNGPLSTSRHVMAPVMAHVDPEEPWSPCSARFITDFLDNGYGHCLLDKPEAPLHLPVTFPGKDYDADRQCQLTFGPDSRHCPQLPPPCAALWCSGHLNGHAMCQTKHSPWADGTPCGPAQACMGGRCLHMDQLQDFNIPQAGGWGPWGPWGDCSRTCGGGVQFSSRDCTRPVPRNGGKYCEGRRTRFRSCNTEDCPTGSALTFREEQCAAYNHRTDLFKSFPGPMDWVPRYTGVAPQDQCKLTCQARALGYYYVLEPRVVDGTPCSPDSSSVCVQGRCIHAGCDRIIGSKKKFDKCMVCGGDGSGCSKQSGSFRK
B5: furin-processed mature protein of construct D (protein)
chain: FASLSRFVETLVVADDKMAAFHGAGLKRYLLTVMAAAAKAFKHPSIRNPVSLVVTRLVILGSGEEGPQVGPSAAQTLRSFCAWQRGLNTPEDSDPDHFDTAILFTRQDLCGVSTCDTLGMADVGTVCDPARSCAIVEDDGLQSAFTAAHELGHVFNMLHDNSKPCISLNGPLSTSRHVMAPVMAHVDPEEPWSPCSARFITDFLDNGYGHCLLDKPEAPLHLPVTFPGKDYDADRQCQLTFGPDSRHCPQLPPPCAALWCSGHLNGHAMCQTKHSPWADGTPCGPAQACMGGRCLHMDQLQDFNIPQAGGWGPWGPWGDCSRTCGGGVQFSSRDCTRPVPRNGGKYCEGRRTRFRSCNTEDCPTGSALTFREEQCAAYNHRTDLFKSFPGPMDWVPRYTGVAPQDQCKLTCQARALGYYYVLEPRVVDGTPCSPDSSSVCVQGRCIHAGCDRIIGSKKKFDKCMVCGGDGSGCS
B6: furin-processed construct I (truncated ADAMTS4 active-site mutant without the spacer and the TSP-1 domain, C-terminal FLAG tag) (protein)
chain: FASLSRFVETLVVADDKMAAFHGAGLKRYLLTVMAAAAKAFKHPSIRNPVSLVVTRLVILGSGEEGPQVGPSAAQTLRSFCAWQRGLNTPEDSDPDHFDTAILFTRQDLCGVSTCDTLGMADVGTVCDPARSCAIVEDDGLQSAFTAAHQLGHVFNMLHDNSKPCISLNGPLSTSRHVMAPVMAHVDPEEPWSPCSARFITDFLDNGYGHCLLDKPEAPLHLPVTFPGKDYDADRQCQLTFGPDSRHCPQLPPPCAALWCSGHLNGHAMCQTKHSPWADGTPCGPAQACMGGRCLHMDQLQDFNIPQAVDYKDDDDK
B7: mature protein of construct G (full-length ADAMTS4 active-site mutant E362Q with FLAG tag) (protein)
chain: FASLSRFVETLVVADDKMAAFHGAGLKRYLLTVMAAAAKAFKHPSIRNPVSLVVTRLVILGSGEEGPQVGPSAAQTLRSFCAWQRGLNTPEDSDPDHFDTAILFTRQDLCGVSTCDTLGMADVGTVCDPARSCAIVEDDGLQSAFTAAHQLGHVFNMLHDNSKPCISLNGPLSTSRHVMAPVMAHVDPEEPWSPCSARFITDFLDNGYGHCLLDKPEAPLHLPVTFPGKDYDADRQCQLTFGPDSRHCPQLPPPCAALWCSGHLNGHAMCQTKHSPWADGTPCGPAQACMGGRCLHMDQLQDFNIPQAGGWGPWGPWGDCSRTCGGGVQFSSRDCTRPVPRNGGKYCEGRRTRFRSCNTEDCPTGSALTFREEQCAAYNHRTDLFKSFPGPMDWVPRYTGVAPQDQCKLTCQARALGYYYVLEPRVVDGTPCSPDSSSVCVQGRCIHAGCDRIIGSKKKFDKCMVCGGDGSGCSKQSGSFRKFRYGYNNVVTIPAGATHILVRQQGNPGHRSIYLALKLPDGSYALNGEYTLMPSPTDVVLPGAVSLRYSGATAASETLSGHGPLAQPLTLQVLVAGNPQDTRLRYSFFVPRPTPSTPRPTPQDWLHRRAQILEILRRRPWAGRKVDYKDDDDK
B8: furin-processed mature protein of construct C (protein)
chain: FASLSRFVETLVVADDKMAAFHGAGLKRYLLTVMAAAAKAFKHPSIRNPVSLVVTRLVILGSGEEGPQVGPSAAQTLRSFCAWQRGLNTPEDSDPDHFDTAILFTRQDLCGVSTCDTLGMADVGTVCDPARSCAIVEDDGLQSAFTAAHELGHVFNMLHDNSKPCISLNGPLSTSRHVMAPVMAHVDPEEPWSPCSARFITDFLDNGYGHCLLDKPEAPLHLPVTFPGKDYDADRQCQLTFGPDSRHCPQLPPPCAALWCSGHLNGHAMCQTKHSPWADGTPCGPAQACMGGRCLHMDQLQDFNIPQAGGWGPWGPWGDCSRTCGGGVQFSSRDCTRPVPRNGGKYCEGRRTRFRSCNTEDCPTGSALTFREEQCAAYNHRTDLFKSFPGPMDWVPRYTGVAPQDQCKLTCQARALGYYYVLEPRVVDGTPCSPDSSSVCVQGRCIHAGCDRIIGSKKKFDKCMVCGGDGSGCSGSAWSHPQFEK

Target: bovine articular cartilage aggrecan, P13608
Sequence (P13608 17-2364): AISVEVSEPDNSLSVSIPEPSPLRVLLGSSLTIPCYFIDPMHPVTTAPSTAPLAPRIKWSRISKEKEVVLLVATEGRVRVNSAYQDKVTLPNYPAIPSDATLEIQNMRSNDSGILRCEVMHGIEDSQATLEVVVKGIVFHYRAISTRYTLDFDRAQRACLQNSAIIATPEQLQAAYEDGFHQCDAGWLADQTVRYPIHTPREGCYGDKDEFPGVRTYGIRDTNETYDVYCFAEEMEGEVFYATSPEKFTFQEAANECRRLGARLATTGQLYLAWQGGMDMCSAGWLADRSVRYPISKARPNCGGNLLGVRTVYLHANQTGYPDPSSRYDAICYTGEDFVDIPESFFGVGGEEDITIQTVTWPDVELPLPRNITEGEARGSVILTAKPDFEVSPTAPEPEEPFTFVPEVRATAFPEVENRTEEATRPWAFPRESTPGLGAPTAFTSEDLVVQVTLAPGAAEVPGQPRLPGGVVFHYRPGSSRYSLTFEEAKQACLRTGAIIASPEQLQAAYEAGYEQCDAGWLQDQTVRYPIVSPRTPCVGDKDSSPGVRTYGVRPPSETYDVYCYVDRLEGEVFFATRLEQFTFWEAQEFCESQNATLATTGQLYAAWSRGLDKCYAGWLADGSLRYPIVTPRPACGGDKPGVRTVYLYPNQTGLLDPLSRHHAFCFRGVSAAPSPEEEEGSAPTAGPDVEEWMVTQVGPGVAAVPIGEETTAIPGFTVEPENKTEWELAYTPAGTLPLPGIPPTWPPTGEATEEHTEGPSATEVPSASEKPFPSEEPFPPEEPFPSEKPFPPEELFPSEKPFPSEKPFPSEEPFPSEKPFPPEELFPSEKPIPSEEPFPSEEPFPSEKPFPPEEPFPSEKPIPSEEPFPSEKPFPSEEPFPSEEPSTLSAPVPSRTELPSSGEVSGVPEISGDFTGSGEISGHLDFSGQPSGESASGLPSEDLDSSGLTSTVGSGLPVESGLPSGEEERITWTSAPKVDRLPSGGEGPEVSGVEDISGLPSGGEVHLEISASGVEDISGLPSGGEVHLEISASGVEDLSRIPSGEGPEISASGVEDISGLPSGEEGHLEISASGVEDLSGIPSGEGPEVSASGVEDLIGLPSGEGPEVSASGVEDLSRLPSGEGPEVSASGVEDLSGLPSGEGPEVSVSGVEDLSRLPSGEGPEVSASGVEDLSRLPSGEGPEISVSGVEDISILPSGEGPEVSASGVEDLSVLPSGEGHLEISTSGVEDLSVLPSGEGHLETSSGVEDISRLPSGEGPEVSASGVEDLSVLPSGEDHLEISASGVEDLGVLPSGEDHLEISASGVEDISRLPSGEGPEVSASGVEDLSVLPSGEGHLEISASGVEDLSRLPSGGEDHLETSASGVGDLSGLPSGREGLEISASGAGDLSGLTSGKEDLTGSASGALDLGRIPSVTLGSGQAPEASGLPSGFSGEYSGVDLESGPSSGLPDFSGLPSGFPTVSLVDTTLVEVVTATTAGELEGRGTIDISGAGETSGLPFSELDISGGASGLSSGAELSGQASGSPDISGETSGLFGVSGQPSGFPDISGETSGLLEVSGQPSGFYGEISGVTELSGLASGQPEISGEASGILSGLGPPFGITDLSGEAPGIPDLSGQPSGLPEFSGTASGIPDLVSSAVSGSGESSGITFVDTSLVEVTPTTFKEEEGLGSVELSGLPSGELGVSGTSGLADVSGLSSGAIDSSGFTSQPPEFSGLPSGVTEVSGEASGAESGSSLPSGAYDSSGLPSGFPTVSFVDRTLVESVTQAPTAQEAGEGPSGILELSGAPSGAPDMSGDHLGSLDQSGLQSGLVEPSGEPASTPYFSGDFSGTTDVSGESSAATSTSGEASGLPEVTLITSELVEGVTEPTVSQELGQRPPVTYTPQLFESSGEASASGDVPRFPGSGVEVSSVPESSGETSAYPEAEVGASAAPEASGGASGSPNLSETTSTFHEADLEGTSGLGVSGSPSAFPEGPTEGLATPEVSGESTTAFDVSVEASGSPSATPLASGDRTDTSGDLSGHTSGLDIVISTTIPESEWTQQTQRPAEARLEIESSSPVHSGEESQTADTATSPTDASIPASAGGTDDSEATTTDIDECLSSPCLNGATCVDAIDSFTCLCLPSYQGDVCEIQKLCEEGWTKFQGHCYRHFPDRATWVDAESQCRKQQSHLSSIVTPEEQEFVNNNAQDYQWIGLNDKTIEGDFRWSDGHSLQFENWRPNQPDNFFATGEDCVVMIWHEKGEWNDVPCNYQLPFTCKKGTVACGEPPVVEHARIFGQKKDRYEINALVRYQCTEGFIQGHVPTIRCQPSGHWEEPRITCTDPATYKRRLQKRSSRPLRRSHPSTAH

Protein	aggrecanase activity	also measured
B1	Furin-processed construct H (SEQ ID NO:51) and construct I (SEQ ID NO:52) lack aggrecanase activity	
B2		enzymatic (aggrecanase) activity: The furin-processed protein from this construct is enzymatically inactive (SEQ ID NO:46)
B3		aggrecanase activity (Western blot with MAb BC-3 for the 374ARGXX neoepitope): both isoforms have aggrecanase activity
B4		aggrecanase activity (Western blot with MAb BC-3 for the 374ARGXX neoepitope): both isoforms have aggrecanase activity
B5	The furin-processed mature proteins of construct C and D (SEQ ID NOS:47 and 48, respectively) have aggrecanase activity	
B6	Furin-processed construct H (SEQ ID NO:51) and construct I (SEQ ID NO:52) lack aggrecanase activity	
B7	The E362Q mutation abolished the aggrecanase activity of the mature protein (SEQ ID NO:50) of construct G	
B8	The furin-processed mature proteins of construct C and D (SEQ ID NOS:47 and 48, respectively) have aggrecanase activity	
